B1: TbPEX11 array peptides of BS1 (aa 13-35) (peptide)
peptide: QTDGRDKILKAFSGVFKALGSLD
notes: PEX11 of Trypanosoma brucei, residues 13-35 (BS1); on the array this stretch stood as consecutive overlapping 15-mers (2 aa shift), each on its own spot; source: synthetic peptides, synthesized on a cellulose membrane
B2: TbPEX11 array peptides of BS2 (aa 77-99) (peptide)
peptide: CRAKGKVNMKEVLKFLRVLCNFL
notes: PEX11 of Trypanosoma brucei, residues 77-99 (BS2); on the array this stretch stood as consecutive overlapping 15-mers (2 aa shift), each on its own spot; source: synthetic peptides, synthesized on a cellulose membrane
B3: TbPEX11 array peptides of BS3 (aa 139-159) (peptide)
peptide: VLDVVALYGALQKRASDPATS
notes: PEX11 of Trypanosoma brucei, residues 139-159 (BS3); on the array this stretch stood as consecutive overlapping 15-mers (2 aa shift), each on its own spot; source: synthetic peptides, synthesized on a cellulose membrane

These binders were tested against T1, GST-HsPEX19 (human, UniProt P40855 1-299) (assay: peptide or protein array; 15-mer peptides (2 aa shift) on a cellulose membrane; probed with 1 µM GST fusion or GST in TBS + 3% BSA + 0.05% Tween-20, 1 h at 4°C; detected with anti-GST antibody and chemiluminescence; at least three consecutive spots counted as a potential site). Details: both partners purified.
T1 construct: human PEX19, expressed from pGEX4T1-HsPEX19; also called GST-tagged recombinant human PEX19; recombinant human GST-PEX19; source: E. coli BL21 (DE3), purified (Glutathione Agarose 4B)
T1 sequence (looked up): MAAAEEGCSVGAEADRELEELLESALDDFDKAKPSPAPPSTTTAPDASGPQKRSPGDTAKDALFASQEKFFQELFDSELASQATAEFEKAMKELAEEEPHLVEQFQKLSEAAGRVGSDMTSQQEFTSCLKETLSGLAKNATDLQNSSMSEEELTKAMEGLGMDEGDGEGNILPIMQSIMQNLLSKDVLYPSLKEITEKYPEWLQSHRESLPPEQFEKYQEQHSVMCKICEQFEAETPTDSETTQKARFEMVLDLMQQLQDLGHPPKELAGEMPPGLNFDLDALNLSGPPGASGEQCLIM

| Binder | binding result |
| --- | --- |
| B1 | binds |
| B2 | binds |
| B3 | binds |
